B1: BTBD1 (parent)
chain: TSAEIELPDVEPAAFLALLRFLYS
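Further: lentivirally expressed fusions sorted by FACS into six bins by GFP to DsRed ratio, PSI derived from sequencing read proportions per bin multiplied by bin number.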

In this data set the parent is B1. In words: protein stability index of a GFP-peptide fusion (GPS, HEK-293T) (PSI 1-6); higher = more stable. Particulars: c terminus: a fixed tail appended.
Turning to TSAEIELPDVEPAAFLALYRFLYS [L19Y], the protein stability index is 2.49.
Under TSAEIELPDVEPAAFLALLRFLTS [Y23T] stands 1.94; under TSAEIELPDVEPAAFLALLRFLAS [Y23A], 1.99; under TSAEIELPDVEPAAFLALLRFLDS [Y23D], 1.49.
Under TSAEIELPDVEPAAFLALLRFLFS [Y23F] stands 1.75; under TSAEIELPDVEPAAFLALLRFLVS [Y23V], 2.37; under TSAEIELPDVEPAAFLALLRFLNS [Y23N], 1.61.
Turning to TSAEIELPDVEPAAFLALLRFLPS [Y23P], the protein stability index is 1.75.
With TSAEIELPDVEPAAFLALLRFLKS [Y23K], the protein stability index was 2.1.
With TSAEIELPDVEPAAFLALLRFLMS [Y23M], the protein stability index stood at 2.27.
Regarding TSAEIELPDVEPAAFLALLRFLQS [Y23Q], the protein stability index was determined as 2.21.
As for TSAEIELPDVEPAAFLALLRFLGS [Y23G], the figure is 1.58; as for TSAEIELPDVEPAAFLALLRFLSS [Y23S], 1.36.
As for TSAEIELPDVEPAAFLALLRFLLS [Y23L], the protein stability index was 2.57.
For the variant TSAEIELPDVEPAAFLALLRFLHS [Y23H], the protein stability index stood at 1.6.
On to TSAEIELPDVEPAAFLALLRFLCS [Y23C], for which the protein stability index came out at 1.79.
Under TSAEIELPDVEPAAFLALLRFLWS [Y23W] stands 1.99; under TSAEIELPDVEPAAFLALLRFLES [Y23E], 1.9.
As for TSAEIELPDVEPAAFLALLRFLRS [Y23R], the figure is 2.26; as for TSAEIELPDVEPAAFLALLRFLIS [Y23I], 1.97; as for TSAEIELPDVEPAAFLALLRCLYS [F21C], 1.4.
Under TSAEIELPDVEPAAFLALLRLLYS [F21L] stands 2.01; under TSAEIELPDVEPAAFLALLRHLYS [F21H], 2.14; under TSAEIELPDVEPAAFLALLRVLYS [F21V], 2.01.
As for TSAEIELPDVEPAAFLALLRWLYS [F21W], the protein stability index stood at 2.41.
For the variant TSAEIELPDVEPAAFLALLRNLYS [F21N], the protein stability index was determined as 1.69.
Consider TSAEIELPDVEPAAFLALLRSLYS [F21S], for which the protein stability index came out at 1.97.
As for TSAEIELPDVEPAAFLALLRMLYS [F21M], the protein stability index was 1.94.
Turning to TSAEIELPDVEPAAFLALLRGLYS [F21G], the protein stability index stood at 2.18.
As for TSAEIELPDVEPAAFLALLRELYS [F21E], the figure is 1.82; as for TSAEIELPDVEPAAFLALLRDLYS [F21D], 1.85; as for TSAEIELPDVEPAAFLALLRTLYS [F21T], 1.89.
As for TSAEIELPDVEPAAFLALLRRLYS [F21R], the protein stability index is 2.25.
As to TSAEIELPDVEPAAFLALLRILYS [F21I], the protein stability index is 2.25.
As for TSAEIELPDVEPAAFLALLRALYS [F21A], the figure is 2.21; as for TSAEIELPDVEPAAFLALLRQLYS [F21Q], 1.99.
Regarding TSAEIELPDVEPAAFLALLRYLYS [F21Y], the protein stability index worked out at 1.61.
As for TSAEIELPDVEPAAFLALLRPLYS [F21P], the figure is 1.8; as for TSAEIELPDVEPAAFLALLRKLYS [F21K], 1.78; as for TSAEIELPDVEPAAFLARLRFLYS [L18R], 2.03.
As to TSAEIELPDVEPAAFLAWLRFLYS [L18W], the protein stability index came to 2.2.
As for TSAEIELPDVEPAAFLASLRFLYS [L18S], the protein stability index came out at 1.78.
Consider TSAEIELPDVEPAAFLATLRFLYS [L18T], for which the protein stability index is 1.77.
Consider TSAEIELPDVEPAAFLAILRFLYS [L18I], for which the protein stability index is 2.69.
Under TSAEIELPDVEPAAFLAELRFLYS [L18E] stands 2.13; under TSAEIELPDVEPAAFLAQLRFLYS [L18Q], 1.83; under TSAEIELPDVEPAAFLAYLRFLYS [L18Y], 1.59.
As for TSAEIELPDVEPAAFLAMLRFLYS [L18M], the figure is 1.72.
As for TSAEIELPDVEPAAFLAHLRFLYS [L18H], the figure is 2.55; as for TSAEIELPDVEPAAFLANLRFLYS [L18N], 1.57.
Consider TSAEIELPDVEPAAFLADLRFLYS [L18D], for which the protein stability index was found to be 2.64.
As for TSAEIELPDVEPAAFLAPLRFLYS [L18P], the figure is 2.11; as for TSAEIELPDVEPAAFLAVLRFLYS [L18V], 1.37.
Take TSAEIELPDVEPAAFLAGLRFLYS [L18G]: the protein stability index came out at 1.86.
Regarding TSAEIELPDVEPAAFLAKLRFLYS [L18K], the protein stability index was determined as 1.95.
Consider TSAEIELPDVEPAAFLAFLRFLYS [L18F], for which the protein stability index stood at 1.73.
As for TSAEIELPDVEPAAFLALLRFTYS [L22T], the figure is 1.98.
Under TSAEIELPDVEPAAFLALLRFPYS [L22P] stands 2.26.
As for TSAEIELPDVEPAAFLALLRFMYS [L22M], the figure is 2.23; as for TSAEIELPDVEPAAFLALLRFHYS [L22H], 1.96; as for TSAEIELPDVEPAAFLALLRFIYS [L22I], 1.75.
For the variant TSAEIELPDVEPAAFLALLRFNYS [L22N], the protein stability index was 2.06.
For the variant TSAEIELPDVEPAAFLALLRFYYS [L22Y], the protein stability index stood at 1.83.
As for TSAEIELPDVEPAAFLALLRFKYS [L22K], the figure is 1.91.
With TSAEIELPDVEPAAFLALLRFWYS [L22W], the protein stability index is 1.56.
On to TSAEIELPDVEPAAFLALLRFCYS [L22C], for which the protein stability index was determined as 1.64.
In the case of TSAEIELPDVEPAAFLALLRFEYS [L22E], the protein stability index was determined as 2.07.
In the case of TSAEIELPDVEPAAFLALLRFSYS [L22S], the protein stability index is 1.16.
As to TSAEIELPDVEPAAFLALLRFDYS [L22D], the protein stability index was 1.87.
Under TSAEIELPDVEPAAFLALLRFAYS [L22A] stands 1.71.
As for TSAEIELPDVEPAAFLALLRFVYS [L22V], the figure is 2.15; as for TSAEIELPDVEPAAFLALLRFFYS [L22F], 2.61; as for TSAEIELPDVEPAAFLALLRFGYS [L22G], 1.72.
TSAEIELPDVEPAAFLALLRFQYS [L22Q]: the protein stability index is 1.5.
As for TSAEIELPDVEPAAFLALLRFRYS [L22R], the figure is 1.26; as for TSAEIELPDVEPAAFLALLRFLYF [S24F], 2.33; as for TSAEIELPDVEPAAFLALLRFLYP [S24P], 2.61.
For TSAEIELPDVEPAAFLALLRFLYG [S24G], the protein stability index came out at 2.86.
Under TSAEIELPDVEPAAFLALLRFLYM [S24M] stands 2.37; under TSAEIELPDVEPAAFLALLRFLYR [S24R], 2.44; under TSAEIELPDVEPAAFLALLRFLYE [S24E], 1.69.
As for TSAEIELPDVEPAAFLALLRFLYD [S24D], the figure is 1.89.
Turning to TSAEIELPDVEPAAFLALLRFLYY [S24Y], the protein stability index was determined as 1.94.
On to TSAEIELPDVEPAAFLALLRFLYQ [S24Q], for which the protein stability index was determined as 2.33.
As to TSAEIELPDVEPAAFLALLRFLYC [S24C], the protein stability index came out at 2.12.
Under TSAEIELPDVEPAAFLALLRFLYN [S24N] stands 1.78; under TSAEIELPDVEPAAFLALLRFLYK [S24K], 1.52; under TSAEIELPDVEPAAFLALLRFLYV [S24V], 2.1.
As for TSAEIELPDVEPAAFLALLRFLYT [S24T], the protein stability index was 1.97.
Under TSAEIELPDVEPAAFLALLRFLYL [S24L] stands 2.39; under TSAEIELPDVEPAAFLALLRFLYH [S24H], 1.72; under TSAEIELPDVEPAAFLALLRFLYA [S24A], 2.19.
In the case of TSAEIELPDVEPAAFLALLRFLYW [S24W], the protein stability index was found to be 1.89.
Regarding TSAEIELPDVEPAAFLALLRFLYI [S24I], the protein stability index stood at 2.32.

Values taken from the supplement of paper PMC10567573.
